# Measurements taken from paper PMC10786891, “Massively parallel profiling of RNA-targeting CRISPR-Cas13d”.
# T1: EsCas13d, nuclease-dead (Eubacterium siraeum, UniProt B0MS50, R295A;H300A;R849A;H854A)
# T1 sequence: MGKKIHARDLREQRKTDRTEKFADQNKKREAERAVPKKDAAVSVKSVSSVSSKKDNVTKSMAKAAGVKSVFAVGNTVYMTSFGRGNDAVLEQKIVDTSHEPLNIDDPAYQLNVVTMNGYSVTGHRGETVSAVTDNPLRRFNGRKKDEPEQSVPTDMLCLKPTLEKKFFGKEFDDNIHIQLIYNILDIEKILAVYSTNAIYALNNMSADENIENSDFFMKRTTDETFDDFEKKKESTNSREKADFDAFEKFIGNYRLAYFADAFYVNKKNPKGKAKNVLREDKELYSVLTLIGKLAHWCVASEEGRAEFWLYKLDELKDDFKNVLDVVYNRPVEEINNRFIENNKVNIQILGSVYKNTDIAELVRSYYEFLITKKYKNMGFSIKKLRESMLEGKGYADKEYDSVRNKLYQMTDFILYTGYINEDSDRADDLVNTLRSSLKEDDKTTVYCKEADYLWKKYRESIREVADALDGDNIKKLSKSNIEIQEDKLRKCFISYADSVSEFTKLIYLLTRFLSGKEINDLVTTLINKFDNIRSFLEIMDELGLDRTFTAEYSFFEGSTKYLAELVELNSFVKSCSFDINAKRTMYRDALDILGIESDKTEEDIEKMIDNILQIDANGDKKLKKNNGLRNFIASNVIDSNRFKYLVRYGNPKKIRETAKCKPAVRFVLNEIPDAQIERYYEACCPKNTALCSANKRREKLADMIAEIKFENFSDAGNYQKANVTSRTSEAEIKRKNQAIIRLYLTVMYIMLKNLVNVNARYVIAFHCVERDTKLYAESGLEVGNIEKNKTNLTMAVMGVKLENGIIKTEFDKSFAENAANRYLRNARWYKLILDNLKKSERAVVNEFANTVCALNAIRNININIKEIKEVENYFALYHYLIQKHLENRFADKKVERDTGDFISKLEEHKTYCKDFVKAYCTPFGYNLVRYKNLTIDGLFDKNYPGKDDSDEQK
# Biological target: T1, EsCas13d, nuclease-dead
# Assay: crRNA (strand 1, pre-loaded); Mg2+; 40 mM Tris-HCl pH 7.5, 150 mM NaCl, 6 mM MgCl2, 1 mM DTT, 0.1% Tween-20, 0.2 mg/ml BSA; 25 C; 10 min per concentration, then washed
# Conditions: tags: His6-TwinStrep-SUMO cleaved; N-terminal SNAP kept (SNAP-Surface 488); label: 3' end held by stalled T7 RNA polymerase
row,Binder,Kd [nM]
1,"target 1 C6U,U8G (mixed) RNA 1: CACCCGUGCAAAAAUGCAGGGGUCUAAAACUGAGCGGAUAACCUCUCUAUGG RNA 2: GGGAAUGGAUCCACAUCUACGAAUUCGUACCAUAGAGAGGUUAGCUGCUCACCGAGAUCGGAAGAGCACACGU",11 ± 0.5
2,"target 1 C7U,U10G (mixed) RNA 1: CACCCGUGCAAAAAUGCAGGGGUCUAAAACUGAGCGGAUAACCUCUCUAUGG RNA 2: GGGAAUGGAUCCACAUCUACGAAUUCGUACCAUAGAGAGGUGAUUCGCUCACCGAGAUCGGAAGAGCACACGU",11.2 ± 0.5
3,"target 1 U11G,G13C (mixed) RNA 1: CACCCGUGCAAAAAUGCAGGGGUCUAAAACUGAGCGGAUAACCUCUCUAUGG RNA 2: GGGAAUGGAUCCACAUCUACGAAUUCGUACCAUAGAGACGGUAUCCGCUCACCGAGAUCGGAAGAGCACACGU",~70
4,"target 3 C6A,U22C (mixed) RNA 1: CACCCGUGCAAAAUUGCAGGGGUCUAAAACGACCUGAAUAUUUCAGAUCAAA RNA 2: GGGAAUGGAUCCACAUCUACGAAUUCGUUCUUGAUCUGAAAUAUUAAGGUCUGCAGAUCGGAAGAGCACACGU",49.5 ± 7.5
5,"target 3 G4A,A5G (mixed) RNA 1: CACCCGUGCAAAAUUGCAGGGGUCUAAAACGACCUGAAUAUUUCAGAUCAAA RNA 2: GGGAAUGGAUCCACAUCUACGAAUUCGUUUUUGAUCUGAAAUAUUCGAGUCUGCAGAUCGGAAGAGCACACGU",19.5 ± 1.7
6,"target 3 G4C,C6G (mixed) RNA 1: CACCCGUGCAAAAUUGCAGGGGUCUAAAACGACCUGAAUAUUUCAGAUCAAA RNA 2: GGGAAUGGAUCCACAUCUACGAAUUCGUUUUUGAUCUGAAAUAUUGACGUCUGCAGAUCGGAAGAGCACACGU",24.1 ± 3.15
7,target 3 complement block 4-6 (mixed) RNA 1: CACCCGUGCAAAAUUGCAGGGGUCUAAAACGACCUGAAUAUUUCAGAUCAAA RNA 2: GGGAAUGGAUCCACAUCUACGAAUUCGUUUUUGAUCUGAAAUAUUGUCGUCUGCAGAUCGGAAGAGCACACGU,23.7 ± 2.45
8,"target 3 insG 3' of 9,insG 3' of 9 (mixed) RNA 1: CACCCGUGCAAAAUUGCAGGGGUCUAAAACGACCUGAAUAUUUCAGAUCAAA RNA 2: GGGAAUGGAUCCACAUCUACGAAUUCGUUUUUGAUCUGAAAUAGGUUCAGGUCUGCAGAUCGGAAGAGCACACGU",102 ± 21
9,"target 3 insU 3' of 5,insG 3' of 1 (mixed) RNA 1: CACCCGUGCAAAAUUGCAGGGGUCUAAAACGACCUGAAUAUUUCAGAUCAAA RNA 2: GGGAAUGGAUCCACAUCUACGAAUUCGUUUUUGAUCUGAAAUAUUCAUGGUCGUGCAGAUCGGAAGAGCACACGU",27 ± 4.5
10,target 3 insA 3' of 4 (mixed) RNA 1: CACCCGUGCAAAAUUGCAGGGGUCUAAAACGACCUGAAUAUUUCAGAUCAAA RNA 2: GGGAAUGGAUCCACAUCUACGAAUUCGUUUUUGAUCUGAAAUAUUCAGAGUCUGCAGAUCGGAAGAGCACACGU,65.5 ± 15
11,"target 3 A5C,U8G (mixed) RNA 1: CACCCGUGCAAAAUUGCAGGGGUCUAAAACGACCUGAAUAUUUCAGAUCAAA RNA 2: GGGAAUGGAUCCACAUCUACGAAUUCGUUUUUGAUCUGAAAUAGUCCGGUCUGCAGAUCGGAAGAGCACACGU",74 ± 12
12,"target 3 A18G,U22C (mixed) RNA 1: CACCCGUGCAAAAUUGCAGGGGUCUAAAACGACCUGAAUAUUUCAGAUCAAA RNA 2: GGGAAUGGAUCCACAUCUACGAAUUCGUUCUUGGUCUGAAAUAUUCAGGUCUGCAGAUCGGAAGAGCACACGU",13.8 ± 2
13,"target 3 U2A,A5C (mixed) RNA 1: CACCCGUGCAAAAUUGCAGGGGUCUAAAACGACCUGAAUAUUUCAGAUCAAA RNA 2: GGGAAUGGAUCCACAUCUACGAAUUCGUUUUUGAUCUGAAAUAUUCCGGACUGCAGAUCGGAAGAGCACACGU",47.6 ± 10.6
14,"target 3 U2G,G4C (mixed) RNA 1: CACCCGUGCAAAAUUGCAGGGGUCUAAAACGACCUGAAUAUUUCAGAUCAAA RNA 2: GGGAAUGGAUCCACAUCUACGAAUUCGUUUUUGAUCUGAAAUAUUCACGGCUGCAGAUCGGAAGAGCACACGU",3.65 ± 0.55
15,"target 3 A5G,A9G (mixed) RNA 1: CACCCGUGCAAAAUUGCAGGGGUCUAAAACGACCUGAAUAUUUCAGAUCAAA RNA 2: GGGAAUGGAUCCACAUCUACGAAUUCGUUUUUGAUCUGAAAUGUUCGGGUCUGCAGAUCGGAAGAGCACACGU",73 ± 14
16,"target 3 insU 3' of 5,insA 3' of 1 (mixed) RNA 1: CACCCGUGCAAAAUUGCAGGGGUCUAAAACGACCUGAAUAUUUCAGAUCAAA RNA 2: GGGAAUGGAUCCACAUCUACGAAUUCGUUUUUGAUCUGAAAUAUUCAUGGUCAUGCAGAUCGGAAGAGCACACGU",36.5 ± 10.5
17,"target 3 insU 3' of 5,insC 3' of 2 (mixed) RNA 1: CACCCGUGCAAAAUUGCAGGGGUCUAAAACGACCUGAAUAUUUCAGAUCAAA RNA 2: GGGAAUGGAUCCACAUCUACGAAUUCGUUUUUGAUCUGAAAUAUUCAUGGUCCUGCAGAUCGGAAGAGCACACGU",40.5 ± 6
18,"target 3 G3C,A18G (mixed) RNA 1: CACCCGUGCAAAAUUGCAGGGGUCUAAAACGACCUGAAUAUUUCAGAUCAAA RNA 2: GGGAAUGGAUCCACAUCUACGAAUUCGUUUUUGGUCUGAAAUAUUCAGCUCUGCAGAUCGGAAGAGCACACGU",38.7 ± 6.25
19,"target 3 insU 3' of 9,insG 3' of 8 (mixed) RNA 1: CACCCGUGCAAAAUUGCAGGGGUCUAAAACGACCUGAAUAUUUCAGAUCAAA RNA 2: GGGAAUGGAUCCACAUCUACGAAUUCGUUUUUGAUCUGAAAUAUUGUCAGGUCUGCAGAUCGGAAGAGCACACGU",82 ± 19
20,"target 3 insU 3' of 5,insU 3' of 1 (mixed) RNA 1: CACCCGUGCAAAAUUGCAGGGGUCUAAAACGACCUGAAUAUUUCAGAUCAAA RNA 2: GGGAAUGGAUCCACAUCUACGAAUUCGUUUUUGAUCUGAAAUAUUCAUGGUCUUGCAGAUCGGAAGAGCACACGU",31 ± 10
21,"target 3 insG 3' of 2,insU 3' of 1 (mixed) RNA 1: CACCCGUGCAAAAUUGCAGGGGUCUAAAACGACCUGAAUAUUUCAGAUCAAA RNA 2: GGGAAUGGAUCCACAUCUACGAAUUCGUUUUUGAUCUGAAAUAUUCAGGUGCUUGCAGAUCGGAAGAGCACACGU",67.5 ± 9
22,"target 3 insA 3' of 22,insG 3' of 7 (mixed) RNA 1: CACCCGUGCAAAAUUGCAGGGGUCUAAAACGACCUGAAUAUUUCAGAUCAAA RNA 2: GGGAAUGGAUCCACAUCUACGAAUUCGUUUAUUGAUCUGAAAUAUUGCAGGUCUGCAGAUCGGAAGAGCACACGU",96 ± 32.5
23,"target 3 insC 3' of 12,insG 3' of 2 (mixed) RNA 1: CACCCGUGCAAAAUUGCAGGGGUCUAAAACGACCUGAAUAUUUCAGAUCAAA RNA 2: GGGAAUGGAUCCACAUCUACGAAUUCGUUUUUGAUCUGAACAUAUUCAGGUGCUGCAGAUCGGAAGAGCACACGU",94 ± 39.5
24,"target 3 U2G,A11G (mixed) RNA 1: CACCCGUGCAAAAUUGCAGGGGUCUAAAACGACCUGAAUAUUUCAGAUCAAA RNA 2: GGGAAUGGAUCCACAUCUACGAAUUCGUUUUUGAUCUGAAGUAUUCAGGGCUGCAGAUCGGAAGAGCACACGU",62.5 ± 12
25,"target 3 insA 3' of 10,insG 3' of 7 (mixed) RNA 1: CACCCGUGCAAAAUUGCAGGGGUCUAAAACGACCUGAAUAUUUCAGAUCAAA RNA 2: GGGAAUGGAUCCACAUCUACGAAUUCGUUUUUGAUCUGAAAUAAUUGCAGGUCUGCAGAUCGGAAGAGCACACGU",73.5 ± 9.5
26,"target 3 C1U,C16U (mixed) RNA 1: CACCCGUGCAAAAUUGCAGGGGUCUAAAACGACCUGAAUAUUUCAGAUCAAA RNA 2: GGGAAUGGAUCCACAUCUACGAAUUCGUUUUUGAUUUGAAAUAUUCAGGUUUGCAGAUCGGAAGAGCACACGU",66.5 ± 15.5
27,"target 3 insU 3' of 22,insC 3' of 3 (mixed) RNA 1: CACCCGUGCAAAAUUGCAGGGGUCUAAAACGACCUGAAUAUUUCAGAUCAAA RNA 2: GGGAAUGGAUCCACAUCUACGAAUUCGUUUUUUGAUCUGAAAUAUUCAGGCUCUGCAGAUCGGAAGAGCACACGU",12.2 ± 1.35
28,"target 3 insC 3' of 11,insC 3' of 3 (mixed) RNA 1: CACCCGUGCAAAAUUGCAGGGGUCUAAAACGACCUGAAUAUUUCAGAUCAAA RNA 2: GGGAAUGGAUCCACAUCUACGAAUUCGUUUUUGAUCUGAAACUAUUCAGGCUCUGCAGAUCGGAAGAGCACACGU",50 ± 6
